Assay results: the DeepSol protein solubility set

Assay: soluble on expression in E. coli; label from the status in PepcDB or PDB records

Sequence	soluble on expression in E. coli
MSPLSGSLAPLNMKGLVKFQDVSFAYPNHPNVQVLQGLTFTLYPGKVTALVGPNGSGKSTVAALLQNLYQPTGGKVLLDGEPLVQYDHHYLHTQVAAVGQEPLLFGRSFRENIAYGLTRTPTMEEITAVAMESGAHDFISGFPQGYDTEVGETGNQLSGGQRQAVALARALIRKPRLLILDQATSALDAGNQLRVQRLLYESPEWASRTVLLITHQLSLAERAHHILFLKEGSVCEQGTHLQLMERGGCYRSMVEALAAPSDAAAHHHHHH	soluble
MGHHHHHHSHSIKPSTNLVFAKVLEKTRHPNANHLNLVKVKANQKVYEIVCGANNFSVHNWVVLAKLNAELANGLKITPRELRGYVSNGMLCAYSEINPQATSFLTSTDLDGILVLDDNYDHYKTPNQIFNLDDVILDLSIPSNRNDLNGYFWIAKELCAYFDFEYVVDATINHRPHKEIIDVRI	not soluble
MSYTATNQPVRAPPLNSDYELIDGDPYFTRVVSYFRFSDYVNWAVITASFPLGMKLWEKIVPSQGKGLKPSVVNPVTLRVSTLLGFFGGFCLNYVKSSQRFLGWRENSREVKLDRFEIKQKLSQGVLPYNEHLSKLDDRNKDISNRNSQYSHALLFVIPWFNTTYHPYHQVDLKKYYINREGEENWGFELKPLDEIYAKYGKKF	not soluble
MRREALKTAVLKIMIEKMELKNVTHLEETMRLNQDLYIDSVMMLQLIVYIEMDVKLCVPEDEVDPKAFLTVGSLLDFMEELEPLQEVNVNN	not soluble
QNLGAAVAILGGPGTVQGVVRFLQLTPERCLIEGTIDGLEPGLHGLHVHQYGDLTNNCNSCGNHFNPDGASHGGPQDSDRHRGDLGNVRADADGRAIFRMEDEQLKVWDVIGRSLIIDEGEDDLGRGGHPLSKITGNSGERLACGIIARSAGLF	soluble
GSGATSAAGKPQETFLDFNESPYGPSAKARAAMQRAAALCGRYDYDAQDALVGLFAKQNGIPAECVHAYCGSRQPLQYAVAAFTGKERGLVIADPSYDSVVGAAQAQGAKVAAVPLDAEAAHDIERMLAAAQRDAGLIYICNPNNPTGTLTPHERIVRAIERKPERSVVLVDEAYIHFSDAPSVVGLAVQRQDVLVLRTFSKLYGMAGARLGLAIGHPQLLARLERFGGHNVVPSPTAHAGLESLRDDDLVPRRKQQNAEVRERTIAWLRQQGFRCTASQSNCFMVDMRRPAELVIAELEKQRVHVGRPWASWPNWVRVTVGSEEEMQAFR	not soluble
MFVLPVRFERSPRLHPMLSESPHPVGTRVVVQGKRGPEIATVRGEASEPERQARYGAVLRAATPEDLATWEDLHRRAEDLKWLLRARARERGLPVKLVAVEFTLDESLVTISYSADERIELSSLIGELRAHTRARVNFAAIGPREQAQMLGTLGACGRENCSSTHLQDFAPVSIRMARDQQLPLNPEKLSGPCGRLLCCLQYEHEQYLDLLRDLPRKNAKMCHEGSGACGKVTKLHPLAGTVDLQTDQGLLQDVPASELRRLPEQAAARSPRREPREAPASTDLEHHHHHH	soluble
MAHHHHHHMDRLAGSFLSNGDVANASSLYNSLEKLNPTRYSRMARICRVLLNPQGVPLPHRHLDICEALLDPLVPPEVLLRDSAENVQKSFQRLAVCAHPDKNPSPSANEAFLRLTMMKDKALELLRNGVGRKCDGATEAPPGKAADSNGGKGKPKMQGSGPAVPTVAHRRRPLRPGVPL	soluble
LALMSAAKLPKSFVWGYATAAYQIEGSPDKDGREPSIWDTFCKAPGKIADGSSGDVATDSYNRWREDVQLLKSYGVKAYRFSLSWSRIIPKGGRSDPVNGAGIKHYRTLIEELVKEGITPFVTLYHWDLPQALDDRYGGWLNKEEAIQDFTNYAKLCFESFGDLVQNWITFNEPWVISVMGYGNGIFAPGHVSNTEPWIVSHHIILAHAHAVKLYRDEFKEKQGGQIGITLDSHWLIPYDDTDASKEATLRAMEFKLGRFANPIYKGEYPPRIKKILGDRLPEFTPEEIELVKGSSDFFGLNTYTTHLVQDGGSDELAGFVKTGHTRADGTQLGTQSDMGWLQTYGPGFRWLLNYLWKAYDKPVYVTENGFPVKGENDLPVEQAVDDTDRQAYYRDYTEALLQAVTEDGADVRGYFGWSLLDNFEWAEGYKVRFGVTHVDYETQKRTPKKSAEFLSRWFKEHIEE	soluble
MKGAEALLRALEREGVEVIFGHPGGAIMPTYDALYDSPIRHILVRHEQGGVHAATAYARASGRVGVVMATSGPGALNLVTGLADAMMDSTPVVAITGNVPRALIGTDAFQEADVTGVTMPITKHNYLVQDVNEIPRVVKEAFHIAATGRPGPVLIDIPKDVQLAEFTGSFDVKLDLPGYKPTLKGHPKQIERALDALEKAERPVLMVGGGAQHAHAELLAFAEKTGLPVITTLMGLGAFPGNHPLWLGMPGMHGTVAANRAIHHADVILAIGLRFDDRVTGKVSRFAPHAHTIIHVDIDPAEIGKVVRTHIPIVGDSRLVLKELLKGAKALRLAAWWRELEEWRTRYPLRYRPKPHLQSQEVIRAFYEATGGHAIVTTGVGQHQMFAAQFFPVTRPRSFLTSGGLGTMGVGLPFAIGAKIARPEELVIDFDGDGSFQMTLQELATVVKYKLDVKVVILNNGYLGMVRQWQDLFHAKRYSEVYLADSNPDFARLAEAYGIKGVRVERKEDLMKGVEAVLNADGPVVAEFKVYQEEGVFPMIPAGGAAEDMILEPPEEKEEVGA	soluble
MKKQKLSGAEGFESYYLSIFGERWQSLKAALLEERKPEAYSENLIQNYYLDYASIQAARAMPVLEEGSCLDMCAAPGGKTLVLLSRIKENAEIQANELSADRRNRLIRVLDEHLSEETRKRIRVSSYDASRMPRYGQELYDRILLDAPCSSERHVLQNEKYLKQWTEARIKNLSQRQWALLSAAFLLLKPKGFLVYSTCALADEENDFLIEKLIKKYKEKVRLEEKLDGLGPISPEKTRYGFRFLPDKAEGAGPIYFSLIQKN	not soluble
MSKKLLIKTWGCQMNEYDSSKMADLLNAANGYELTEEPEEADVLLLNTCSIREKAQEKVFHQLGRWKTLKDKKPGVVIGVGGCVATQEGDHIRERAPYVDVIFGPQTLHRLPEMIKQSQTDDAPVMDISFPEIEKFDRLPEPRAEGATAFVSIMEGCSKYCTYCVVPYTRGEEVSRPMDDVLFEIAQLAEQGVREVNLLGQNVNAYRGPMHDGEICSFAELLRLVASIDGIDRIRFTTSHPLEFTDDIIAVYEDTPELVSFLHLPVQSGSDRILTMMKRPHTAIEYKSIIRKLRKARPDIQISSDFIVGFPGETDKDFQDTMKLIKDVDFDMSFSFIFSPRPGTPAADYPCDIPEQVKKERLYELQQTINAQAMRYSRLMLATEQRVLVEGPSKKNLMELRARTENNRVVNFEGSADLIGQFVDVKITDVFANSLRGELVRTEKDMDLRSVISPTQMMAKTRREDELGVATFTPLEHHHHHH	soluble
MRPTRKCEFCGKTFVPRSGMQKYCSEECQAETKRLRKKRQQDLINGIEPIMDLQHQEYLTFSKAAILMGCTRQYIYKLVANGKLKASRLSSRMAFVRKADIEKMFEGHPYKRVVPASKSKLSKKAKAEKPTQNQEPTKGKEENDVLDYYSGEEVMSIYKVKKSWLYTSAKRNQIPMCRIAGKNYYSKRHIDEFFGTAVDLNSITEWVTADDVEEAFSMSKSALRAYTYRHKIPTKREYGRTYYSKEHLEELRRTDLMSDDSYYTTEQVQQIYGLTSANICHIVRVHHISKVKVGVKNLLLKTDVERAMAERAAKGL	not soluble
MVSYKARISLSGTEHRVVDRVCNEIKEIASRTGVEIHGPMPLPTKRLVVPVRKSPDGEGTNTWDHWEMRIHKRLIDVDADERTLRQLMRIPIPDGVQIEIQIKS	soluble
MPTYKLSYFDVRAYAEPARILFHLAGVPFDDHRFPHGDGTWEKLKDKTPFGQVPVLYVDGFEIPQSAAIIRYLANKFGYAGKTPEEQAWADAIVDQFKDFMSLFREFKLAQKAGKSDVEIAKVASEVAIPARDSYFEIITNLLEKSKSGFLVGDGLTFADIVVVESLTNLEKVHFFDASEHPKLAALREKIYAIPAIKSWVDIRPDTIY	not soluble
